Patent publication US20160346402A1 (Bayer, published 2016)

How the values were obtained:
[1] = biological target: T1, TPP-2620, TweakR-ECD-34-68-hIgGFc-His-P59A (human); experiment: alanine scan ELISA: IgG coated 1 µg/ml, HEK293 supernatant of TWEAKR(34-68)-Fc construct, anti-HIS-HRP
T1 construct: Used as HEK293 supernatant; also called P59A mutein

[2] = biological target: T2, TPP-2624, TweakR-ECD-34-68-hIgGFc-His-F63A (human); experiment: as above
T2 construct: Used as HEK293 supernatant; also called F63A mutein

[3] = biological target: T3, TPP-2619, TweakR-ECD-34-68-hIgGFc-His-R58A (human); experiment: as above
T3 construct: Used as HEK293 supernatant; also called R58A mutein

[4] = biological target: T4, TPP-2610, TweakR-ECD-34-68-hIgGFc-His-S41A (human); experiment: as above
T4 construct: Used as HEK293 supernatant; also called S41A mutein

[5] = biological target: T5, TPP-2618, TweakR-ECD-34-68-hIgGFc-His-R56A (human); experiment: as above
T5 construct: Used as HEK293 supernatant; also called R56A mutein

[6] = biological target: T6, TPP-2622, TweakR-ECD-34-68-hIgGFc-His-S61A (human); experiment: as above
T6 construct: Used as HEK293 supernatant; also called S61A mutein

[7] = biological target: T7, TPP-2611, TweakR-ECD-34-68-hIgGFc-His-W42A (human); experiment: as above
T7 construct: Used as HEK293 supernatant; also called W42A mutein (34-68)

[8] = biological target: T8, TPP-2609, TweakR-ECD-34-68-hIgGFc-His-S40A (human); experiment: as above
T8 construct: Used as HEK293 supernatant; also called S40A mutein

[9] = biological target: T9, TPP-2625, TweakR-ECD-34-68-hIgGFc-His-L65A (human); experiment: as above
T9 construct: Used as HEK293 supernatant; also called L65A mutein

[10] = biological target: T10, TPP-2621, TweakR-ECD-34-68-hIgGFc-His-H60A (human); experiment: as above
T10 construct: Used as HEK293 supernatant; also called H60A mutein

[11] = biological target: T11, TPP-2607, TweakR-ECD-34-68-hIgGFc-His-S37A (human); experiment: as above
T11 construct: Used as HEK293 supernatant; also called S37A mutein

[12] = biological target: T12, TPP-2612, TweakR-ECD-34-68-hIgGFc-His-S43A (human); experiment: as above
T12 construct: Used as HEK293 supernatant; also called S43A mutein

[13] = biological target: T13, TPP-2616, TweakR-ECD-34-68-hIgGFc-His-D51A (human); experiment: as above
T13 construct: Used as HEK293 supernatant; also called D51A mutein

[14] = biological target: T14, TPP-2615, TweakR-ECD-34-68-hIgGFc-His-K48A (human); experiment: as above
T14 construct: Used as HEK293 supernatant; also called K48A mutein

[15] = biological target: T15, TPP-2623, TweakR-ECD-34-68-hIgGFc-His-D62A (human); experiment: as above
T15 construct: Used as HEK293 supernatant; also called D62A mutein

[16] = biological target: T16, TPP-2613, TweakR-ECD-34-68-hIgGFc-His-D45A (human); experiment: as above
T16 construct: Used as HEK293 supernatant; also called D45A mutein

[17] = biological target: T17, TPP-2617, TweakR-ECD-34-68-hIgGFc-His-S54A (human); experiment: as above
T17 construct: Used as HEK293 supernatant; also called S54A mutein

[18] = biological target: T18, TPP-2608, TweakR-ECD-34-68-hIgGFc-His-R38A (human); experiment: as above
T18 construct: Used as HEK293 supernatant; also called R38A mutein

[19] = biological target: T19, TPP-2202, TWEAKR-ECD-28-80-hIgGFc-His (human); experiment: ELISA: TPP-2202 (TWEAKR 28-80-Fc) coated at 1 µg/ml; biotinylated IgG at 0.08 µg/ml (open bars) and 0.3 µg/ml (solid bars; legend of FIG. 3 prints 0.03); streptavidin-HRP, Amplex Red; Y = signal [Rfu]
T19 construct: also called TWEAKR-Fc fusion protein; full-length ectodomain Fc fusion
T19 sequence (chain, as listed by the source limits assumed): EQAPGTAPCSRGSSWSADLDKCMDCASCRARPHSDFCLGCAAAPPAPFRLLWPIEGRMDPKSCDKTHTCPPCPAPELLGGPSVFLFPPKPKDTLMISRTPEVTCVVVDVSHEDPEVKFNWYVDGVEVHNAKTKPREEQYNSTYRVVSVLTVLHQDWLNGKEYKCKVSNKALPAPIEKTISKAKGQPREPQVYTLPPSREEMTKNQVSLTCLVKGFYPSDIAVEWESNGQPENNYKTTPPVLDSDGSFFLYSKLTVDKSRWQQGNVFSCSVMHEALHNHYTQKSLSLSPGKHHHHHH
Description: FIG. 3: Interaction of the TWEAKR ectodomain with antibodies and reference antibodies. […] Detection was carried out using streptavidin-HRP and Amplex Red substrate.
Detection was carried out using streptavidin-HRP and Amplex Red substrate. IgGs were biotinylated using an about 2-fold molar excess of biotin-LC-NHS (Pierce; Cat. No. 21347) according to the instructions of the manufacturer and desalted using Zeba desalting columns (Pierce; Cat. No. 89889).

B1: P4A8(TPP-1324) (antibody, human IgG1, kappa, V domains shown)
VH: QVQLVQSGAEVKKPGASVKVSCKGSGYTFTDYGMHWVRQAPGQGLEWMGVISTYNGYTNYNQKFKGRVTMTVDKSTSTAYMELRSLRSDDTAVYYCARAYYGNLYYAMDYWGQGTLVTVSS
VL: DIVLTQSPASLAVSLGQRATISCRASKSVSTSSYSYMHWYQQKPGQPPKLLIKYASNLESGVPARFSGSGSGTDFSLNIHPMEEDDTAMYFCQHSRELPFTFGGGTKLEIKR
notes: Comparative antibody; variable domains from WO2009/140177 with human IgG1 constant region added
binding result [1]: no binding | binding result [2]: no binding | binding result [3]: no binding | binding result [4]: no binding | binding result [5]: no binding | binding result [6]: no binding | binding result [7]: no binding | binding result [8]: no binding | binding result [9]: no binding | binding result [10]: no binding | binding result [11]: no binding | binding result [12]: no binding | binding result [13]: no binding | binding result [14]: no binding | binding result [15]: no binding | binding result [16]: no binding | binding result [17]: no binding | binding result [18]: no binding | binding result [19]: binds
